From patent US12006368 (SURROZEN OPERATING, dated 2024)
Numbering of substitutions follows the chain as printed.

B1: 014S-B06 (Fab, V domains shown)
VH: EVQLVQSGGGLVKPGGSLRLSCAASGFTFSSYSMNWVRQAPGKGLEWVSYIENDGSITTYADSVKGRFTISRDDSKNTLYLQMNSLKTEDTAVYYCARAPYYYGSGSLFRLDYWGQGTLVTVSS
VL: not shown
B2: 014S-G06 (Fab, V domains shown)
VH: EVQLVESGGGLVKPGGSLRLSCAASGFTFSSYAMHWVRQAPGKGLEWVSAIGAGGGTYYADSVKGRFTISRDDSKNTLYLQMNSLKTEDTAVYYCARDAYNWFDPWGQGTLVTVSS
VL: not shown
B3: 005S-E09 (Fab, V domains shown)
VH: EVQLVQSGGGLVQPGGSLRLSCAASGFNLRRYNMNWVRQAPGKGLEWVSRISNSGSLVYYADSVKGRFTISRDNSKNTLYLQMNSLRAEDTAVYYCARDADSSGYYRYDAFDIWGQGTMVTVSS
VL: EIVLTQSPATLSVSPGERATLSCRASQSVSSNLAWYQQKPGQAPRLLIYDASNRATGIPARFSGSGSGTEFTLTISSLQSEDFAVYYCQQRNNWLYTFGQGTKVEIKR
B4: 005S-D11 (Fab, V domains shown)
VH: QVQLVQSGAEVKKPGASVKVSCKASGYTFTNNFMHWVRQAPGQGLEWMGWINPNSGDTKFAPKFQGRVTMTRDTSTSTVYMELSSLRSEDTAVYYCAREANYDILTGYIRPDAFDIWGQGTTVTVSS
VL: EIVLTQSPATLSVSPGERATLSCRASQSLRSKLAWYQQKPGQAPRLLIYGASTRATGIPARFSGSGSGTEFTLTISSLQSEDFAVYYCQQYANSPWTFGPGTKVDIKR
B5: 005S-H10 (Fab, V domains shown)
VH: QVQLVQSGAEVKKPGSSVKVSCKASGGAFSTSSISWVRQAPGQGLEWVGRIIPVLGTANYAQKFQGRVTITADESTSTAYMELSSLRSEDTAVYYCAKGGWRSSFDPWGQGTLVTVSS
VL: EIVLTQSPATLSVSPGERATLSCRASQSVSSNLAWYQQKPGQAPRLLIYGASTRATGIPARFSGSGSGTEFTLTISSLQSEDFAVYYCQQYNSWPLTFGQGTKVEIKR
B6: 005S-B11 (Fab, V domains shown)
VH: QVQLVQSGAEVKKPGASVKVSCKASGYTFTSYDINWVRQAPGQGLEWMGGFDPEDGETIYAQKFQGRVTMTRDTSTSTVYMELSSLRSEDTAVYYCAKAGDWGLYGMDVWGQGTMVTVSS
VL: DIQMTQSPSSLSASVGDRVTITCRASQSISRWLAWYQQKPGKAPKLLIYAASSLQSGVPSRFSGSGSGTDFTLTISSLQPEDFATYYCQQTNTFPFTFGPGTKVDIKR
B7: 014S-B04 (Fab, V domains shown)
VH: QVQLVQSGAEVKKPGASVKVSCKASGYIFTDYYMHWVRQAPGQGLEWMGWMNPNSGNTGYAQKFQGRVTMTRDTSTSTVYMELSSLRSEDTAVYYCARGGSRYDFWSGHWYFDLWGRGTLVTVSS
VL: B6 VL with S28G, R31N, W32Y, T91S, N92Y, T93S, F94T, P100Q, D105E
B8: 014S-G02 (Fab, V domains shown)
VH: QVQLVQSGAEVKKPGASVKVSCKASGYTFTSYYMNWVRQAPGQGLEWMGIISPSGGSTSYAQKFQGRVTMTRDTSTSTVYMELSSLRSEDTAVYYCARWGDYGDLYYFDYWGQGTLVTVSS
VL: DIQMTQSPSSLSASVGDRVTITCRASQGISSALAWYQQKPGKAPKLLIYATSTLQSGVPSRFSGSGSGTDFTLTISSLQPEDFATYYCQQVNSYPPTFGQGTKLEIKR
B9: 005S-D08 (Fab, V domains shown)
VH: EVQLVESGGGLVQPGGSLRLSCAASGFAFSSHWMHWVRQAPGKGLEWVSAIDGSGGSTYYADSVKGRFTISRDNSKNTLYLQMNSLRAEDTAVYYCARDRQLGWAHWYFDLWGRGTLVTVSS
VL: not shown

Legend:
[1] = target: Fzd1 cysteine rich domain (CRD), C-terminally biotinylated (human, UniProt Q9UP38 101-230); assay: BLI
Protocol: (§1) Binding kinetics of antibody fragments to a variety of Fzd cysteine rich domain (CRD) protein targets (Fzd1, Fzd2, Fzd3, Fzd4, Fzd5, Fzd6, Fzd7, Fzd8, Fzd9 and/or Fzd10 CRDs) was determined by bio-layer interferometry (BLI) using Octet Red 96 (PALL ForteBio, Fremont, CA) instruments at 30° C., 1000 rpm with streptavidin (SA) biosensors. C-terminal biotinylated Fzd CRD recombinant protein was diluted to 20 nM in the running buffer (PBS, 0.05% Tween-20, 0.5% BSA, pH 7.2) and captured to the SA biosensor until coupling length reached 0.2 nm. Following capture of the Fzd CRD, the SA biosensor with captured biotinylated-Fzd CRD was dipped into wells containing the relevant antibody fragment at […] (0, 1.37, 4.12, 12.4, 37, 111.1, 333.3, 1000 nM) in running buffer, plus a well with only running buffer as a reference channel. […] was determined by global fitting, 1:1 binding model according to manufacturer recommended settings.
(§2) Table 1B provides clone IDs, the sequence identifier number of the antibody heavy chain fragment and/or light chain fragment, if present, for illustrative clones. In certain embodiments, the Fzd binding domain is an Fab or was derived from an Fab, so the heavy chain of Table 1B includes VH and CH1 sequence, but not CH2 or CH3 sequences. In certain embodiments, the Fzd binding domain is a VHH or sdAb® or was derived from a VHH or sdAb, so Table 1B includes the VHH domain. […] The Kd values were determined by BLI as described above. Blank entries denote that the binding to the specific Fzd receptor has not yet been determined. The entry of "n.b." indicates no binding.

[2] = target: Fzd2 cysteine rich domain (CRD), C-terminally biotinylated (human, UniProt Q14332 24-155); assay: BLI
Protocol: as §1, §2

Row | Binder | binding result [1] | binding result [2]
1 | B1 | no binding (tested: 1000 nM) | no binding (tested: 1000 nM)
2 | B2 | no binding (tested: 1000 nM) | no binding (tested: 1000 nM)
3 | B3 | no binding (tested: 1000 nM) | no binding (tested: 1000 nM)
4 | B4 | no binding (tested: 1000 nM) | no binding (tested: 1000 nM)
5 | B5 | no binding (tested: 1000 nM) | no binding (tested: 1000 nM)
6 | B6 | no binding (tested: 1000 nM) | no binding (tested: 1000 nM)
7 | B7 | no binding (tested: 1000 nM) | no binding (tested: 1000 nM)
8 | B8 | no binding (tested: 1000 nM) | no binding (tested: 1000 nM)
9 | B9 | no binding (tested: 1000 nM) | no binding (tested: 1000 nM)
